Experimental data: PMC11996676

Target: aPKCι kinase domain (residues 248–596), fully primed (human), P41743
Test: fluorescence polarisation; fluorescence anisotropy; Llgl1 P-site peptide and aPKCι kinase domain (2P, pT412 and pT564); apparent Kd

Chain of aPKCι kinase domain (residues 248–596), fully primed (human), P41743 (P41743 248-596): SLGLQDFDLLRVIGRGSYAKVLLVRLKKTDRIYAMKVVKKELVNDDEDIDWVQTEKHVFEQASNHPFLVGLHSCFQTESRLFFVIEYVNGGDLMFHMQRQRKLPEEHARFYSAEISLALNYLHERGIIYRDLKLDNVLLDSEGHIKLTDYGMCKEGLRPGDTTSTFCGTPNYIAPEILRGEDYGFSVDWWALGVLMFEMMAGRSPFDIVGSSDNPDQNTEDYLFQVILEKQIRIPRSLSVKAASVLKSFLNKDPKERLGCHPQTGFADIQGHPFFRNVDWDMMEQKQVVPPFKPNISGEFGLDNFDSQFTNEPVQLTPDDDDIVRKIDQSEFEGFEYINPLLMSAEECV

B1: Llgl1 P-site peptide (peptide)
chain: LAMEGPLSRVKSLKKSLRQSFRRIRKSRV
modifications: not checked
Kd: 48 nM
